How the values were obtained:
[1] = test system: peritoneal capillary permeability in mice; experiment: Peritoneal capillary permeability in mice (HAc, Evans blue); format: in vivo; settings: for Exudation rate (OD590) / PI (%): mice
Procedure: The drug was administered once by injection (EDSM needed to be administered twice a day), and the blank model group was given an equal volume of physiological saline and fed normally. On the 5th day, a 5 g/L Evans blue physiological saline solution was injected into the tail vein at […], followed by intraperitoneal injection ([…]) of a HAc solution (6 mL/L) to induce inflammation. After 20 min, the mice were sacrificed by cervical dislocation. 5 mL of physiological saline was intraperitoneally injected, the abdomen was gently rubbed for 2 min, the abdominal cavity was cut, a peritoneal washing solution was collected and centrifuged at 4000 rpm for 10 min, 1 mL of supernatant was taken, and 3 mL of physiological saline was added to obtain 4 mL of dilution. The absorbance OD value of the dilution was measured by an ultraviolet spectrophotometer at a wavelength of 590 nm, and the amount of pigment exudation was expressed by the OD590 nm value, and the peritoneal capillary permeability in mice was examined.

liver cancer cell Hep-G2 = experiment: MTT assay, proliferation of liver cancer cell Hep-G2; format: cell-based
Procedure: The MTT assay was used to detect the inhibitory effect of the integrin blocker fusion protein obtained in Example 1 on the proliferation of various tumor cells, including melanoma cell B16F10, gastric cancer cell MGC-803, lung cancer cell A549, liver cancer cell Hep-G2, breast cancer cell MDA-MB-231, colon cancer cell HCT-116, human glioma U87, and cervical cancer cell Hela.
The tumor cells were cultured in a 5% CO2 incubator at 37° C. to a density of 90% or more, and collected by trypsinization. The cells were resuspended in the culture liquid and counted under a microscope. The cell concentration was adjusted to 3.0×10^4 cells/mL. The cell suspension was inoculated into a 96-well plate at 100 μL per well and cultured overnight in a 5% CO2 incubator at 37° C. […] After the cells were fully adhered, each dilution was added to a 96-well plate at 100 μL per well, respectively. […] 20 μL of 5 mg/mL MTT was added to each well of a 96-well plate, and incubation was continued for 4 hours. The medium was aspirated and 100 μL of DMSO per well were added to dissolve. The absorbance was measured at 570 nm with a microplate reader with a reference wavelength of 630 nm, and the proliferation inhibition (PI) was calculated. The formula is as follows: […]
where Ntest is the OD value of the test group and Ncontrol is the OD value of the blank control group.
The test was repeated 5 times independently. The results obtained from the test were calculated as mean±SD, and statistical t-test was performed. P<0.05 was considered as a significant difference, and P<0.01 was considered as an extremely significant difference.

mouse spleen lymphocytes = experiment: Proliferation of mouse spleen lymphocytes (ConA, MTT); format: cell-based; settings: for A570 nm/A630 nm / PI (%): with ConA 5 μg/mL
Procedure: Tris-NH4Cl was used to break the red blood cells, which were allowed to stand in an ice water bath for 4 min and centrifuged (1000 rpm, 5 min), the supernatant was discarded, and the cells were washed twice with sterile PBS.
The cells were statically cultured in a cell incubator at 37° C. for 48 h. After the completion of the culture, 20 μL of MTT was added to each well, and the culture was continued for 4 h. Finally, all the solutions in each well were discarded, 100 μL of DMSO was added to each well, and the mixture was shaken and detected by a microplate reader for OD value at 570 nm. 5 parallels were preformed for per well.

B1: Protein II: IgG2-Fc linked to antiangiogenesis polypeptide EDSM-Y via a flexible linker; SEQ ID NO: 17 (protein)
chain: ERKCCVECPPCPAPPVAGPSVFLFPPKPKDTLMISRTPEVTCVVVDVSHEDPEVQFNWYVDGVEVHNAKTKPREEQFNSTFRVVSVLTVVHQDWLNGKEYKCKVSNKGLPAPIEKTISKTKGQPREPQVYTLPPSREEMTKNQVSLTCLVKGFYPSDISVEWESNGQPENNYKTTPPMLDSDGSFFLYSKLTVDKSRWQQGNVFSCSVMHEALHNHYTQKSLSLSPGKGGGGSGGGGSGGGGSFQPVLHLVALNSPLSGGMRGIRGADFQCFQQARAVGLAGTFRAGGGGRGD
[1]; in words
  inhibition of the increase of peritoneal capillary permeability induced by glacial acetic acid: could significantly inhibit the increase of peritoneal capillary permeability
[1]; dose 8 mg/kg
  Exudation rate (OD590): 0.51 ± 0.06
  PI (%): 26.09%
[1]; dose 32 mg/kg
  Exudation rate (OD590): 0.34 ± 0.03
  PI (%): 50.72%
[1]; dose 128 mg/kg
  Exudation rate (OD590): 0.32 ± 0.07
  PI (%): 53.62%
Liver cancer cell Hep-G2; dose 1 μg/mL
  A570 nm/A630 nm: 0.6746 ± 0.0372
  PI (%): 1.49%
Liver cancer cell Hep-G2; dose 2 μg/mL
  A570 nm/A630 nm: 0.6132 ± 0.0253
  PI (%): 10.46%
Liver cancer cell Hep-G2; dose 4 μg/mL
  A570 nm/A630 nm: 0.5799 ± 0.0396
  PI (%): 15.32%
Liver cancer cell Hep-G2; dose 8 μg/mL
  A570 nm/A630 nm: 0.5499 ± 0.0215
  PI (%): 19.70%
Liver cancer cell Hep-G2; dose 16 μg/mL
  A570 nm/A630 nm: 0.5190 ± 0.0185
  PI (%): 24.21%
Liver cancer cell Hep-G2; dose 32 μg/mL
  A570 nm/A630 nm: 0.4706 ± 0.0374
  PI (%): 31.28%
Liver cancer cell Hep-G2; dose 64 μg/mL
  A570 nm/A630 nm: 0.4256 ± 0.0268
  PI (%): 37.85%
Liver cancer cell Hep-G2; dose 128 μg/mL
  A570 nm/A630 nm: 0.3801 ± 0.0174
  PI (%): 44.49%
Liver cancer cell Hep-G2; dose 256 μg/mL
  A570 nm/A630 nm: 0.3156 ± 0.0151
  PI (%): 53.91%
Liver cancer cell Hep-G2; in words
  inhibitory effect on liver cancer cell Hep-G2: a certain inhibitory effect
Mouse spleen lymphocytes; compared with the ConA group
  inhibition of mouse spleen lymphocytes: could inhibit mouse spleen lymphocytes to some extent
Mouse spleen lymphocytes; dose 8 μg/mL
  A570 nm/A630 nm: 0.5514 ± 0.0187
  PI (%): 6.84%
Mouse spleen lymphocytes; dose 32 μg/mL
  A570 nm/A630 nm: 0.4637 ± 0.0155
  PI (%): 21.66%
Mouse spleen lymphocytes; dose 128 μg/mL
  A570 nm/A630 nm: 0.3825 ± 0.0103
  PI (%): 35.38%

From patent publication US11407811B2, “Fusion protein, preparation method therefor and use thereof” (JIANGSU RONGTAI BIOTECH CO., LTD., priority 2017, dated 2022)
